In article PMC7269643 (Science Advances, 2020):

Molecular target: the molecule itself
Experiment: AUC

B1: VapC22 toxin from Mycobacterium tuberculosis, expressed alone from a modified pBAD/Myc-His vector (enzyme)
chain: MTTVLLDSHVAYWWSAEPQRLSMAASQAIEHADELAVAAISWFELAWLAEQERIQLAIPVLSWLQQLAEHVRTVGITPSVAATAVALPSSFPGDPADRLIYATAIEHGWRLVTKDRRLRSHRHPRPVTVW
For B1, the “stoichiometry N” value was 2.
